Test results: patent publication US8394765B2, “Methods of treating obesity with two different anti-obesity agents” (Amylin Pharmaceuticals LLC, priority 2004, dated 2013)

Key:
[1] = Leptin effect on body weight in normal HSD versus DIO prone rats (Example 3); type: in vivo, rat; details: FIG. 9
Procedure: Normal, lean HSD rats were divided into two treatment groups. Each group was implanted with subcutaneous osmotic mini-pumps (DURECT Corp., Cupertino, Calif.) designed to deliver either vehicle or leptin (500 μg/kg/day) for a 14 day period and body weight was recorded weekly. […] The DIO prone animals described herein appear resistant to the weight reducing effect of leptin.

[2] = Pair-feeding experiment in DIO rats, amylin+leptin (Example 2); type: in vivo, rat; details: two weeks, leptin 500 μg/kg/day with intake restricted to amount consumed by amylin-treated group, FIG. 7
Procedure: Amylin is known to have an anorectic effect on a recipient. In order to examine the effect of amylin+leptin in the context of an anorectic effect of amylin, a pair-feeding experiment was performed. DIO rats and drug treatment groups were established as described above. DIO rats in the vehicle, amylin, and amylin+leptin treatment groups had ad libitum access to food, while intake in the pair-fed leptin treatment was restricted to the amount consumed by the amylin-treated group. Body weight was recorded daily for the two weeks of treatment. […] The combination of amylin+leptin results in a decrease of about 12% in body weight relative to vehicle control.

[3] = DIO rat 14-day mini-pump study of leptin and amylin: food intake, body weight, body composition (Example 1); type: in vivo; details: DIO rats, 14 days s.c. osmotic mini-pump, leptin 500 μg/kg/day, amylin 100 μg/kg/day
Source text: Diet-induced obesity (DIO) in the in the Sprague-Dawley rat is a valuable model for the study of obesity and regulation of energy homeostasis. These rats were developed from a line of (Crl:CD®(SD)BR) rats that are prone to become obese on a diet relatively high in fat and energy. See, for example, Levin (1994) Am. J. Physiol. 267:R527-R535, Levin et al. (1997) Am. J. Physiol. 273:R725-R730. DIO male rats were obtained from Charles River Laboratories, Inc. (Wilmington, Mass.). The rats were housed individually in shoebox cages at 22° C. in a 12/12-hour light dark cycle. Rats were maintained ad-libitum on a moderately high fat diet (32% kcal from fat; Research Diets D1226B) for 6-7 weeks prior to drug treatment. At the end of the fattening period (prior to drug administration), the animals typically achieve a mean body weight of about 500 g.
The DIO animals were divided into four treatment groups. Each group was implanted with subcutaneous osmotic mini-pumps (DURECT Corp., Cupertino, Calif.) designed to deliver vehicle, leptin (500 μg/kg/day), amylin (100 μg/kg/day) or leptin (500 μg/kg/day)+amylin (100 μg/kg/day) for a 14 day period. […] Food intake and body weight were recorded daily. Body composition was measured prior to and after drug treatment using NMR (Echo Medical Systems, Houston, Tex.). […]

[4] = In-bred DIO (Levin) rats, amylin and leptin, body weight and NMR body composition (Example 2); type: in vivo, rat; details: two weeks, leptin 500 μg/kg/day, amylin 100 μg/kg/day, FIG. 6A
Procedure: They were housed individually in shoebox cages at 22 C in a 12/12-hour light dark cycle.
Body composition was measured prior to and after drug treatment using NMR (Echo Medical Systems, Houston, Tex.). For body composition measurements, rats were briefly placed (˜1 min) in a well-ventilated plexiglass tube that was then inserted into a specialized rodent NMR machine. Rats were scanned prior to pump implantation and on the final day of the experiment. This enabled the calculation of changes in actual grams of fat and dry lean tissue (e.g., grams of body fat after treatment−grams of body fat at baseline=change in grams of body fat) and changes in % body composition for fat and dry lean tissue (e.g., % body fat after treatment−% body fat at baseline=change in % body fat).

[5] = 24-week randomized, double-blind, active-drug-controlled study of pramlintide and metreleptin in overweight and obese subjects (Example 8); type: in vivo, human
Procedure: To evaluate inter alia the safety, tolerability and effect of the combination of an amylin agonist (pramlintide) and a leptin (metreleptin) on changes in body weight, a 24-week, randomized, double-blind, active-drug-controlled, multicenter study was conducted under USFDA approved protocols. Secondary objectives of the study were the determination of the pharmacokinetics of pramlintide and leptin, waist circumference, rate of change in body weight, and patient reported outcomes including for example without limitation perception of well-being related to weight change and mood. The study enrolled overweight and obese subjects with defined BMI ([…]), with enrollment statistics as provided in Table 2. […] Subjects treated with pramlintide/metreleptin lost an average of 25 pounds from the start of the 24-week study compared with an average of 17 pounds for subjects treated with pramlintide alone.
In an initial lead-in phase, all subjects received dietary instructions and treatment with pramlintide at 180 mcg BID for two weeks, followed by pramlintide at 360 mcg BID for two weeks. Subjects who completed the 4-week lead-in period and who lost 2-8 percent body weight during this period were eligible to continue the study. The term “enrolled” (Table 2) refers to subjects (N=177) receiving at least one dose of pramlintide during the lead-in period. The term “non-randomized” refers to subjects not continuing in the study past the lead-in period. The term “evaluable” refers to subjects who completed Visit 9 (Week 16) study procedures and adequately complied with the study protocol.
After the 4-week lead-in period, for the remaining 20 weeks of the study the subjects were randomized in a 2:2:1 ratio to one of three groups with BID treatment of 1) pramlintide 360 mcg/metreleptin 5 mg (“Leptin+Pramlintide”); 2) pramlintide 360 mcg/placebo (“Pramlintide”); or 3) metreleptin 5 mg/placebo (“Leptin”).

[6] = 4-week pramlintide lead-in, arm of later randomization

B1: murine leptin (protein, UniProt P41160 22-167, looked up)
Leptin: VPIQKVQDDTKTLIKTIVTRINDISHTQSVSAKQRVTGLDFIPGLHPILSLSKMDQTLAVYQQVLTSLPSQNVLQIANDLENLRDLLHLLAFSKSCSLPQTSGLQKPESLDGVLEASLYSTEVVALSRLQGSLQDILQQLDVSPEC
Question: With B1 as the molecule, how does the body weight ([1]; DIO prone rats, same leptin dose) read?
Answer: ineffective

Question: What about the body weight ([1]; normal, lean HSD rats, leptin 500 μg/kg/day s.c. mini-pump, 14 days) of the same molecule?
Answer: significant and sustained reduction in body weight

Question: What about the “decrease in body weight relative to vehicle control, pair-fed” value [2] of the same molecule?
Answer: ~6%

Question: And the cumulative food intake ([3]; FIG. 1)?
Answer: no effect

Question: What about the “total changes in body weight” value ([3]; FIG. 2) of the same molecule?
Answer: no effect

Question: What about the “vehicle-corrected decrease in percent body weight” value [4] of the same molecule?
Answer: 2%

Question: What about the “rate of change in body weight, early rate” value ([5]; 0-12 weeks, evaluable population, FIG. 24) of the same molecule?
Answer: −0.19±0.05 kg/week

Question: What about the “Mean Change in Body Weight” value ([5]; 4-week lead-in period in which all subjects received pramlintide (180 then 360 mcg BID), arm of later randomization) of the same molecule?
Answer: -3.97 kg

Question: And the “% Weight Loss During Lead-in <5% (share of subjects)” value [5, 6]?
Answer: 78%

Question: What about the “% Weight Loss During Lead-in ≧5% (share of subjects)” value [5, 6] of the same molecule?
Answer: 22%

Question: What about the “rate of change in body weight, late rate” value ([5]; 12-20 weeks, evaluable population, FIG. 24) of the same molecule?
Answer: −0.01±0.08 kg/week
